Where two headings read alike, the source gives them in different places.

This passage reports EC50 and Max results from US20250215083A1 (JIANGSU HENGRUI PHARMACEUTICALS, published 2025).

Assay [1] concerns the target T1, human GPRC5D (human, UniProt Q9NZD1 1-345).
T1 construct: whole, on cells; also called membrane surface GPRC5D
Description: FACS, MM.1R cells. As to the method:
(§1) To test the capacity of the GPRC5D/CD3 bispecific antibodies of the present disclosure to bind to GPRC5D, a flow cytometry assay was used in this test example to measure the capacity of the GPRC5D/CD3 bispecific antibodies to bind to the human multiple myeloma cell line MM.1R (ATCC® CRL-2975), which expresses GPRC5D, and to a stably transfected cell strain CHOK1-cynoGPRC5D, which expresses cynomolgus monkey GPRC5D. The specific procedure was as follows: The cells described above were cultured in complete culture medium containing 10% FBS, incubated in a 37° C., 5% CO₂ incubator for 2 days, and added to a cell plate at 1×10⁵ cells/well. The plate was centrifuged at 300 g for 5 min and washed once with 1% BSA. The antibodies were serially diluted to 8 concentrations and added to the cell plate at 100 μL/well. The plate was incubated at 4° C. for 1 h and washed once with 1% BSA. […] The plate was washed three times with 1% BSA, PBS was added at 100 μL/well, and plate reading was performed.

Assay [2] has as its target T1, human GPRC5D. Description: FACS, MM.1R cells. On the procedure:
as §1
The source holds these as a separate data set.

The target of assay [3] is T2, cynomolgus monkey GPRC5D (cynomolgus monkey).
T2 construct: whole, on cells; also called CynoGPRC5D; cynoGPRC5D
The assay is described as follows: FACS, CHOK1-cynoGPRC5D cells. As to the method: as §1

Assay [4] has as its target T2, cynomolgus monkey GPRC5D. Description: FACS, CHOK1-cynoGPRC5D cells. As to the method:
as §1
The source holds these as a separate data set.

T1 sequence (Q9NZD1 whole entry): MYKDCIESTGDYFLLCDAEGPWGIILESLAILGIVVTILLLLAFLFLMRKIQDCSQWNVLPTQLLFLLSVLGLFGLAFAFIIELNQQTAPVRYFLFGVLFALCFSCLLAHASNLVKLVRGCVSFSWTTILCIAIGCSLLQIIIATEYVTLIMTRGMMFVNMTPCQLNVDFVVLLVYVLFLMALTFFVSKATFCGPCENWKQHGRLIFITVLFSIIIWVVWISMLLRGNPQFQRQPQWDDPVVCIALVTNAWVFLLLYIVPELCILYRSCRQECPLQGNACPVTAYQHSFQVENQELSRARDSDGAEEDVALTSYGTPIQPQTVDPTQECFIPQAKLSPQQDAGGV

B1: F11-9 (bispecific antibody)
heavy: not shown
light: DVVLTQSPLSLPVTLGQPASISCKSSQSLLHSTGKTYLNWLLQRPGQSPRRLIYLVSKLDSGVPDRFSGSGSGTDFTLKISRVEAEDVGVYYCAQGTHFPRTFGGGTKVEIKRTVAAPSVFIFPPSDEQLKSGTASVVCLLNNFYPREAKVQWKVDNALQSGNSQESVTEQDSKDSTYSLSSTLTLSKADYEKHKVYACEVTHQGLSSPVTKSFNRGEC
notes: formula 11
With B1, the EC50 was 2.16 nM in assay [1], 2.16 nM in assay [2] and 0.17 nM in assay [3]. The Max in assay [1] came to 1950.

B2: F11-10 (bispecific antibody)
heavy: not shown
light: DVVLTQSPLSLPVTLGQPASISCKSSQSLLHSNGKTYLNWLLQRPGQSPRRLIYLVSKLDSGVPDRFSGSGSGTDFTLKISRVEAEDVGVYYCAQGTHFPRTFGGGTKVEIKRTVAAPSVFIFPPSDEQLKSGTASVVCLLNNFYPREAKVQWKVDNALQSGNSQESVTEQDSKDSTYSLSSTLTLSKADYEKHKVYACEVTHQGLSSPVTKSFNRGEC
notes: formula 11
Consider B2, for which the values for the EC50 in assay [1], in assay [2] and in assay [3] were 1.29 nM, 1.29 nM and 0.4 nM, respectively. Besides, the Max in assay [1] was determined as 1470.

B3: F11-11 (bispecific antibody)
heavy: not shown
light: DVVLTQSPLSLPVTLGQPASISCKSSQSLLHSSGKTYLNWLLQRPGQSPRRLIYLVSKLDSGVPDRFSGSGSGTDFTLKISRVEAEDVGVYYCAQGTHFPRTFGGGTKVEIKRTVAAPSVFIFPPSDEQLKSGTASVVCLLNNFYPREAKVQWKVDNALQSGNSQESVTEQDSKDSTYSLSSTLTLSKADYEKHKVYACEVTHQGLSSPVTKSFNRGEC
notes: formula 11
In the case of B3, the EC50 in assay [1] worked out at 1.7 nM; in assay [2] it was 1.7 nM; in assay [3], 1.01 nM. The molecule also showed a Max in assay [1] of 1560.

B4: F11-12 (bispecific antibody)
heavy: not shown
light: DVVLTQSPLSLPVTLGQPASISCKSSQSLLHSTGKTYLNWLLQRPGQSPRRLIYLVSKLDSGVPDRFSGSGSGTDFTLKISRVEAEDVGVYYCAQGTHFPRTFGGGTKVEIKRTVAAPSVFIFPPSDEQLKSGTASVVCLLNNFYPREAKVQWKVDNALQSGNSQESVTEQDSKDSTYSLSSTLTLSKADYEKHKVYACEVTHQGLSSPVTKSFNRGEC
notes: formula 11
B4: the EC50 stood at 1.93 nM in assay [1], 1.93 nM in assay [2] and 1.6 nM in assay [3]. The molecule also came in with a Max in assay [1] of 1600.

B5: F11-2 (bispecific antibody)
heavy: not shown
light: DVVMTQTPLSLSVTPGQPASISCRSSQSLVHSSGNTYLYWYLQKPGQSPKLLIYKVSNRFSGVPDRFSGSGSGTDFTLKISRVEAEDVGVYYCSQSTHVPPLTFGQGTKLEIKRTVAAPSVFIFPPSDEQLKSGTASVVCLLNNFYPREAKVQWKVDNALQSGNSQESVTEQDSKDSTYSLSSTLTLSKADYEKHKVYACEVTHQGLSSPVTKSFNRGEC
notes: formula 11
Consider B5, for which the EC50 amounted to 0.35 nM in assay [1], 0.35 nM in assay [2], 0.47 nM in assay [4] and 0.47 nM in assay [3]. Moreover, the Max in assay [1] came out at 1.63; in assay [4], 1.09.

B6: F11-1 (bispecific antibody)
heavy: not shown
light: DIVMTQTPLSLSVTPGQPASISCRSSQSLVHSNGNTYLYWYLQKPGQSPQLLIYKVSNRFSGVPDRFSGSGSGTDFTLKISRVEAEDVGVYYCSQSTHVPPLTFGQGTKLEIKRTVAAPSVFIFPPSDEQLKSGTASVVCLLNNFYPREAKVQWKVDNALQSGNSQESVTEQDSKDSTYSLSSTLTLSKADYEKHKVYACEVTHQGLSSPVTKSFNRGEC
notes: formula 11, GPRC5D x CD3 (S107E scFv)
Take B6: the EC50 is 0.44 nM in assay [1], 0.44 nM in assay [2], 0.36 nM in assay [4] and 0.36 nM in assay [3]. Moreover, the Max in assay [1] worked out at 1.76; in assay [4], 1.31.
